Consider six variants from IntAct's records for PubMed 31515488.

The chains are these.
B1: Cytochrome b-245 chaperone 1 (Homo sapiens), Q9BQA9 (parent)
chain: MYLQVETRTSSRLHLKRAPGIRSWSLLVGILSIGLAAAYYSGDSLGWKLFYVTGCLFVAVQNLEDWEEAIFDKSTGKVVLKTFSLYKKLLTLFRAGHDQVVVLLHDVRDVSVEEEKVRYFGKGYMVVLRLATGFSHPLTQSAVMGHRSDVEAIAKLITSFLELHCLESPTELSQSSDSEAGDPASQS
B2: Signal transducing adapter molecule 1 (Homo sapiens), Q92783 (parent)
chain: MPLFATNPFDQDVEKATSEMNTAEDWGLILDICDKVGQSRTGPKDCLRSIMRRVNHKDPHVAMQALTLLGACVSNCGKIFHLEVCSRDFASEVSNVLNKGHPKVCEKLKALMVEWTDEFKNDPQLSLISAMIKNLKEQGVTFPAIGSQAAEQAKASPALVAKDPGTVANKKEEEDLAKAIELSLKEQRQQSTTLSTLYPSTSSLLTNHQHEGRKVRAIYDFEAAEDNELTFKAGEIITVLDDSDPNWWKGETHQGIGLFPSNFVTADLTAEPEMIKTEKKTVQFSDDVQVETIEPEPEPAFIDEDKMDQLLQMLQSTDPSDDQPDLPELLHLEAMCHQMGPLIDEKLEDIDRKHSELSELNVKVMEALSLYTKLMNEDPMYSMYAKLQNQPYYMQSSGVSGSQVYAGPPPSGAYLVAGNAQMSHLQSYSLPPEQLSSLSQAVVPPSANPALPSQQTQAAYPNTMVSSVQGNTYPSQAPVYSPPPAATAAAATADVTLYQNAGPNMPQVPNYNLTSSTLPQPGGSQQPPQPQQPYSQKALL
B3: G2/M phase-specific E3 ubiquitin-protein ligase (Homo sapiens), Q7L622 (parent)
chain: MNESKPGDSQNLACVFCRKHDDCPNKYGEKKTKEKWNLTVHYYCLLMSSGIWQRGKEEEGVYGFLIEDIRKEVNRASKLKCCVCKKNGASIGCVAPRCKRSYHFPCGLQRECIFQFTGNFASFCWDHRPVQIITSNNYRESLPCTICLEFIEPIPSYNILRSPCCKNAWFHRDCLQVQAINAGVFFFRCTICNNSDIFQKEMLRMGIHIPEKDASWELEENAYQELLQHYERCDVRRCRCKEGRDYNAPDSKWEIKRCQCCGSSGTHLACSSLRSWEQNWECLECRGIIYNSGEFQKAKKHVLPNSNNVGITDCLLEESSPKLPRQSPGSQSKDLLRQGSKFRRNVSTLLIELGFQIKKKTKRLYINKANIWNSALDAFRNRNFNPSYAIEVAYVIENDNFGSEHPGSKQEFLSLLMQHLENSSLFEGSLSKNLSLNSQALKENLYYEAGKMLAISLVHGGPSPGFFSKTLFNCLVYGPENTQPILDDVSDFDVAQIIIRINTATTVADLKSIINECYNYLELIGCLRLITTLSDKYMLVKDILGYHVIQRVHTPFESFKQGLKTLGVLEKIQAYPEAFCSILCHKPESLSAKILSELFTVHTLPDVKALGFWNSYLQAVEDGKSTTTMEDILIFATGCSSIPPAGFKPTPSIECLHVDFPVGNKCNNCLAIPITNTYKEFQENMDFTIRNTLRLEKEESSHYIGH
partner: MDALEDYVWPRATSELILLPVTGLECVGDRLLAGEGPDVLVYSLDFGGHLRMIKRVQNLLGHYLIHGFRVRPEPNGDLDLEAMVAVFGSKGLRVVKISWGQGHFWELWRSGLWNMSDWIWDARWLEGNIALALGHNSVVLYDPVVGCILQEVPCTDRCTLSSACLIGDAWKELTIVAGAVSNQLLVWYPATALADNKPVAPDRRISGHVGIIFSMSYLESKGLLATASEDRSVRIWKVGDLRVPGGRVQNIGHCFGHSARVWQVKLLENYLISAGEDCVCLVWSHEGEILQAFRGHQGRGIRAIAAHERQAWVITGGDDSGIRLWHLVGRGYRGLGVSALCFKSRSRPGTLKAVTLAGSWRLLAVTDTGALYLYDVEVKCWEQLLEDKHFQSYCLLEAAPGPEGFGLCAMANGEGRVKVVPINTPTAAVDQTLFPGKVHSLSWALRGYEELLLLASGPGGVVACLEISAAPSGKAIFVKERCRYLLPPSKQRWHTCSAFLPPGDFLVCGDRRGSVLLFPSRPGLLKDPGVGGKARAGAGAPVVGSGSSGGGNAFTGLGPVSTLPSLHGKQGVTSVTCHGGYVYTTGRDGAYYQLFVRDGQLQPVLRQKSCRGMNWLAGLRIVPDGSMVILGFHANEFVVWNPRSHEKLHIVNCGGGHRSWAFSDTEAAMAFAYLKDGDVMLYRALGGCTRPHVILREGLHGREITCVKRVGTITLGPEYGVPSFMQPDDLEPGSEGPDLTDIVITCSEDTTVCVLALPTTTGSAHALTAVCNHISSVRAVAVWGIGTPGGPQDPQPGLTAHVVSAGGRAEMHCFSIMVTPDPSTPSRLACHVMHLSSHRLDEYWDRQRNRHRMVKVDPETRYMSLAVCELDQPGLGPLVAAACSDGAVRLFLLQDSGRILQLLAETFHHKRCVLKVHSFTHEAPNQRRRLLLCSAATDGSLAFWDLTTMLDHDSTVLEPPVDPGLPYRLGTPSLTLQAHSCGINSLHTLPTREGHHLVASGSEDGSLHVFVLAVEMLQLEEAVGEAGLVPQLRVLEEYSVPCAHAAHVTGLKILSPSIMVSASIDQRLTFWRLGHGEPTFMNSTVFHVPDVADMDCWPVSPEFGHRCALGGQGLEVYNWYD

The variants in one assay derive from B1. Particulars: with BCL2L13, Q9BXK5.
BCL2L13, Q9BXK5, sequence (Q9BXK5 whole entry): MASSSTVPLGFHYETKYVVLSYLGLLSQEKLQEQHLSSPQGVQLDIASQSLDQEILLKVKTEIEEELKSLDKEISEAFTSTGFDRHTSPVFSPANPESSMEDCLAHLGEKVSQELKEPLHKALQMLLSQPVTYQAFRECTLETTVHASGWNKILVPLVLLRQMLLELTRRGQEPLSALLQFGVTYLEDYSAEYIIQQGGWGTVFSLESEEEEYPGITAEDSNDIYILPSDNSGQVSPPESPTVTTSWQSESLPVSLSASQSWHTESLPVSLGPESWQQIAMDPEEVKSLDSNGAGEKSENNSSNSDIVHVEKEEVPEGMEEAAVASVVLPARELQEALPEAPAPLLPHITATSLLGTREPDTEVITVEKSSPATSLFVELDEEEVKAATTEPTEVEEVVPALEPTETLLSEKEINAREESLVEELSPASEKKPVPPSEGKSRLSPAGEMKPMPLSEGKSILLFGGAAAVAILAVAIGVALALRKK
On to R129W, for which the “effect of a mutation on the interaction” value is recorded as “with no effect”.

In the next assay the parent is B2. Particulars: with hgs_human HGS.
As to I343T, the “effect of a mutation on the interaction” value is “with no effect”.

With V61I, the “effect of a mutation on the interaction” value is on record as “with no effect”.

I350T: the “effect of a mutation on the interaction” value was “with no effect”.

With A367T, the “effect of a mutation on the interaction” value is given as “with no effect”.

The variants in another assay derive from B3. The note with it: with wdr6_human WDR6, Q9NNW5.
On to P328L, for which the “effect of a mutation on the interaction” value is listed as “with no effect”.
